These results are taken from patent US20040048242.

For the series, the target named is T1, GST-pRb (non-acetylated), P06400.
T1 chain: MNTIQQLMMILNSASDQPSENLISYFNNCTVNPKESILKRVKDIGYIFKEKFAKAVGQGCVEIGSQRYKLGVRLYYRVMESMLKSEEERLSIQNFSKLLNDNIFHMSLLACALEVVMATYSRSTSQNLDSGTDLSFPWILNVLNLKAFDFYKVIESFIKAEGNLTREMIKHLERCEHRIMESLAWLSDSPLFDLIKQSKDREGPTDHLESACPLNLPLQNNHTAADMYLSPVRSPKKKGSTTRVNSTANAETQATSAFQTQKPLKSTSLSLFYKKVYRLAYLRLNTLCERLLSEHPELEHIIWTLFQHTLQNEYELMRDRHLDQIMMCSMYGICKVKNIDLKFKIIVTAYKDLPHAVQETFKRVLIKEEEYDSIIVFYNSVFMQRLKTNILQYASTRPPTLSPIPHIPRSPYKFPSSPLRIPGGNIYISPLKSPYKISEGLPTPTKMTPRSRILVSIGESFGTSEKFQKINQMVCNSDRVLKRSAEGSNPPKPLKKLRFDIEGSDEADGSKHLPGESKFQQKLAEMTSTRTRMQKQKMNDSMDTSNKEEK

B1: his-tagged p300 1195-1673 (protein)
chain: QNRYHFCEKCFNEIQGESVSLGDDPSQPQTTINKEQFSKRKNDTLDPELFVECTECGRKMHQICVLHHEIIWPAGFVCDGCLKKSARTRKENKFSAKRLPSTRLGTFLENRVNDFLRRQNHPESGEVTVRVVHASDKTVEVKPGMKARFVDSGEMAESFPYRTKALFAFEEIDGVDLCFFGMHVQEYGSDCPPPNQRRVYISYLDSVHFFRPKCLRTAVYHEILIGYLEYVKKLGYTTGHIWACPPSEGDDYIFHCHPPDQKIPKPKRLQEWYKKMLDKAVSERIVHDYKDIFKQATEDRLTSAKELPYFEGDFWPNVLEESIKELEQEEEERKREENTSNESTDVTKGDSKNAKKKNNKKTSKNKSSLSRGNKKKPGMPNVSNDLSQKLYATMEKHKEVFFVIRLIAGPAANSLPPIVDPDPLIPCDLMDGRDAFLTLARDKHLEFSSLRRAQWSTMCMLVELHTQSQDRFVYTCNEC
B1: the “in vitro acetylation of GST-pRb with 14C acetyl CoA” value is “GST-pRb could be acetylated by p300”.
